From the supplement of paper PMC9170038

System: MS2 coat protein
Test: apparent KD of MS2 coat protein; higher = weaker reporter binding
Conditions: Eterna round: R107
Summary of the method: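 Titrations with SNAP-549-labelled MS2 coat protein ran in twofold steps from 0.7 or 1.5 nM to 3 µM, each step taking 0.8–1.5 h at the start and 10–20 min toward the end. The targets were designed RNA switches transcribed on-chip from Illumina sequencing clusters, held in 100 mM Tris-HCl pH 7.5, 80 mM KCl, 4 mM MgCl2, without or with constant ligand. Apparent KD was taken per design as the median of normalised cluster binding-curve fits.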

[1] = input ligand: theophylline 20 uM
[2] = input ligand: theophylline 2 mM
[3] = input ligand: tryptophan 2.4 mM

Sequence | apparent KD of MS2 coat protein (input ligand: arginine 13.2 mM) [nM] | apparent KD of MS2 coat protein (input ligand: none) [nM] | apparent KD of MS2 coat protein [1] [nM] | apparent KD of MS2 coat protein [2] [nM] | apparent KD of MS2 coat protein [3] [nM]
CGGCCCUCAGAUGAGGAUCACCCAUCUGAUACCAGCCUGGAAACAGGCCCUUGGCAGCAGAAGGUCAUCAAAGAUGACCAAGCCG [TheoAX 30 #OpenEnded #AlternativeMS2] | 10 | 11.8 | 19.4 | 89.1 | 12
CGUUAAGAAUCGGCCGCCACUCCAUACGUGUGAAUCGCGGAUCGACAUGAGGAUCACCCAUGUCGGAGGACCGGGAUCCUCUUUC [theeternabot_sameState_MS2_Trp_B_12] | 28.2 | – | 49.2 | 48 | –
CUAAAUAUAUCGGCCGCCACUUACUCAUGAGGUAACAACAUGAGGAUCACCCAUGUUUGAGGAUCAAGGACCGGGAUAUAUUUAG [AstrosSSTryB#16] | 26.1 | – | 37.2 | 28.9 | –
CUACAUGGGCUCGAUACCAGUCAGCUCUCGCGUCUCUCAGACAUGAGGAUCACCCAUGUUGACCCUUGGCAGCGACGAUGUAGGC [theeternabot_exclusion_MS2_Theo_B_46] | 51.1 | – | 123 | – | 83.9
CUACAUUUGUAGAAACCGGUCAACAUUAUUCGAGGACCGGUACGGCCGCCACUCGUAUCAUUUGAUACAUGAGGAUCACCCAUGU [Tryptophan A 8] | 21.1 | – | 26.1 | 26.6 | –
CUAGGAAACUAGUAAGGGUGGUAUAGAGAUACCAGUACAGAAAUGUACCCUUGGCAGCUCACUGCAACAUGAGGAUCACCCAUGU [Ex Theophylline A 11] | 29.9 | – | 41.6 | – | 26.1
CUAUGUAUAUAUGCGAAAGCUACGUGUUGACGAGGACCGGUACGGCCGCCACUCGACAUGAGGAUCACCCAUGUAAUAUAUAUAG [BMP_BFE] | 102 | – | 173 | 300 | –
CUCCCGUGGUCGGCCGCCACUGGAGGCUUUGCGCGACAUGAGGAUCACCCAUGUGUGCCCGGCGUCAGGACCGGGAUCGCGUGAG [#1 Same State - Tryptophan B Attempt #13 (HarryS)] | 11.7 | 14.6 | 16 | 17.7 | 11.5
CUCGGGUUAUCAGAUACCAGACUAAAAUUUACAUGAGGAUCACCCAUGUAAUGGGUGAUAGUCCCUUGGCAGCUGUUAUGUUUAA [JR_ExcTheophyB_Sub001] | 65 | – | 85.4 | – | 70.8
CUGCCAUGCAGAGAUACCAGUGAGCUCAGAACAUGAGGAUCACCCAUGUACGCCGCCGAUCACCCUUGGCAGCUCUGCAUGGCAG [%*#)(] | 12.2 | 12.4 | 14.1 | 11.4 | 11.6
CUGCCAUGCAGAGAUACCAGUGCGCUCAGCACAUGAGGAUCACCCAUGUUGGCUGCCGAUCACCCUUGGCAGCUCUGCAUGGCAG [#04 Same State - Theophylline B] | 10.9 | – | 12.5 | – | 8.66
CUGUUUACAUGAGCCCGUCAUAUAUACGAUACCAGUUAAAGAUGAAACCCUUGGCAGCGUAGGACAUGAGGAUCACCCAUGUGCC [theeternabot_exclusion_MS2_Theo_A_17] | 15.6 | – | 21.1 | – | 18.6
GAAACGUAGGUGGAGCGGUGAAAUGGCGAUACCAGCGUGGAAACAUGCCCUUGGCAGCGUUAGAACAUGAGGAUCACCCAUGUUU [#22 Exclusion-TheophyllineA] | 12.9 | – | 15.4 | – | 14.9
GAACAGUCGGACAUGAGGAUCACCCAUGUGCGAGGACCGGUACGGCCGCCACUCGACAAGGGCGGUCCCGAAGCGAACAUACGCG [Cecearla] | 14.9 | – | 43.4 | 34.4 | –
GAACAUAAGGAUACUAUAAUAAGUACAGAAGGAGCGAGCGGAAGCUCAGGUAGGUCGCUGGGUAACAUGAGGAUCACCCAUGUUG [SSArg A #14 Road to perfection1] | 23.1 | 21.4 | 37 | 37 | 15.6
GAAGGAGUUAUGGGUACUCCUUCACUGGAAGGAGCGAGCGAAAGCUCAGGUAGGUCGCCAGAAACAUGAGGAUCACCCAUGUAAU [(A)''-(M)'-(A)'-(Arg1)-(Arg2)-(M1)-(M2)_Design6] | 30.3 | 45.7 | 59.5 | 65.3 | 41.3
GACAGACGAGGAAGGAGCGACAUGAGGAUCACCCAUGUUGCGGGUUUAAGGUGAACUAAGUGUCAGGUAGGUCGCCUCGCUUUUA [Diatbeat] | 35.7 | 41.2 | 56.5 | 49.3 | 36.3

Sequence | apparent KD of MS2 coat protein (input ligand: arginine 13.2 mM) [nM] | apparent KD of MS2 coat protein (input ligand: none) [nM] | apparent KD of MS2 coat protein [1] [nM] | apparent KD of MS2 coat protein [2] [nM] | apparent KD of MS2 coat protein [3] [nM]
GACAUGAGGAUCACCCAUGUUUGCUAUGAAGGAGCGUCGGAAAUGACAGGUAGGUCGCAUAGUAGACCUUGUAUUUCGUGUGUUU [#01 Exclusion - Arginine A] | 10.8 | 10.8 | 14.5 | 11.2 | 12
GACAUUAACUGAAGGAGCGAGGUAGAACGGGAUGAGCAUACAUGAGGAUCACCCAUGUGGCCUCAGGUAGGUCGCAGAUGAGAUU [Exclusion Arginine B GF25] | 83.4 | 175 | 201 | 203 | 179
GACCGGUUAUAGCGCGAUUGUCUUGUGGAAGGAGCGCAGAGGGCUGCAGGUAGGUCGCCACAUGAGGAUCACCCAUGUCAGGAAA [Biraesge] | 28.1 | 19.2 | 32.2 | 35.5 | 19.7
GAGACAUGAGGAUCACCCAUGUUAGAUGAUACCAGUUAGAGAAGGAGCCCUUGGCAGCGUAAAUCUAGAGCCUAUGACGACAUGU [ss-theoA-1] | 16.2 | – | 15.8 | – | 13.2
GAGCUGAUGUAGAGAUUAUAUAAAAGAGAUACCAGUACAGAAAUGUACCCUUGGCAGCUCAACUUUACAUGAGGAUCACCCAUGU [Ex Theophylline A 19] | 15.4 | – | 15.8 | – | 13.9
GAGUCCACGGCGGCCGCCACUCGCGGCGCCACAUGGCGCCGGGACAUGAGGAUCACCCAUGUCCCGAGGACCGGGCCGAUCCUUA [Same State Typrtophan B GF3] | 11.2 | 21 | 26.6 | 31.5 | 12.9
GAUACUAUGAAAGUAGUAUCUACGUGUUGACGAGGACCGGUACGGCCGCCACUCGACAUGAGGAUCACCCAUGUAUAGAAUAUGU [TrypA_2] | 25.1 | – | 39.2 | 31.9 | –
GAUAUGUUUCGAAGGAGCGGCCCUUGAUCCUCAUGAGACAUGAGGAUCACCCAUGUCUCGGGCCAGGUAGGUCGCGAAAUAUAUC [Astros-omei-mod4] | 30.3 | 19.2 | 32.1 | 21.4 | 19.5
GAUAUUUGAAAACAAAUAUCAGUGGGUGAACGAGGACCGGUACGGCCGCCACUCGGACAUGAGGAUCACCCAUGUCCAUGUGAAA [AstrosExyTryA#7] | 13.9 | – | 18.2 | 17.6 | –
GAUCCUCGUACGGAUACCAGCGACUAACAUGAGGAUCACCCAUGUGAUAAAGAAAAUAUUUGCCCUUGGCAGCCGAAUAGAUAGU [#21 Same State - Theophylline B] | 36.5 | – | 91.5 | – | 74.2
GAUGAUAUUGCAGAUACCAGACACAUGAGGAUCACCCAUGUCGCUGGGUUACUGGAUCGUGUCCCUUGGCAGCUGCGAUAUCAUC [Austria] | 69.7 | – | 379 | – | 294
GAUUAAACAUGAGGAUCACCCAUGUAUAUACGAGGACCGGUACGGCCGCCACUCGAAAACGAGUAUCCUCGAAUAAACAUGAUAA [AK 2 SS Trypt (A)] | 27.7 | – | 48.3 | 52.8 | –
GCACCAGGUACGGAUACCAGAGCAAGCCAAAUGAGUGAACAUGAGGAUCACCCAUGUUUGCUCCCUUGGCAGCCGUACCUGGUGC [ETB NP+V+V2 #11 +-Same Structure] | 7.91 | – | 12.2 | – | 9.35
GCACCAGGUACGGAUACCAGCUGCCCGAGAUACAUGAGGAUCACCCAUGUGACCUGGUUUAGCCCUUGGCAGCUGUACCUGGUGC [#14 Same State - Theophylline B] | 13 | – | 13.8 | – | 14.3
GCACGAGUAAGACCUGACUUCAACAAUGAUACCAGACUAGUAAACGUCCCUUGGCAGCAUCAGACAUGAGGAUCACCCAUGUGGC [theeternabot_exclusion_MS2_Theo_A_44] | 26.4 | – | 39.1 | – | 34.3
GCACUACAUGAGGAUCACCCAUGUGCAGAUACCAGAGGUGUAUGCCUCCCUUGGCAGCUGCGUCGCUCUGGAAACUUAUUGGUUU [Same State Theophylline A GF17] | 18.3 | – | 26.6 | – | 18.6
